Data from US20260098096A1 (MONASH UNIVERSITY, published 2026).
Blank lines part the entries; values can stand above or below the binder they belong to.

How the values were obtained:
[1] = biological target: T1, Human CCR8 (human, UniProt P51685 1-355); test: flow cytometry on hCCR8-L1.2 transfected cells
T1 construct: Expressed on transfected CHO-Flpn or L1.2 cells; also called hCCR8; C-C chemokine receptor type 8

[2] = biological target: T2, human CCR3 (human, UniProt P51677 1-355); test: flow cytometry on transfected L1.2 cells
T2 construct: whole, on cells
T2 sequence (looked up): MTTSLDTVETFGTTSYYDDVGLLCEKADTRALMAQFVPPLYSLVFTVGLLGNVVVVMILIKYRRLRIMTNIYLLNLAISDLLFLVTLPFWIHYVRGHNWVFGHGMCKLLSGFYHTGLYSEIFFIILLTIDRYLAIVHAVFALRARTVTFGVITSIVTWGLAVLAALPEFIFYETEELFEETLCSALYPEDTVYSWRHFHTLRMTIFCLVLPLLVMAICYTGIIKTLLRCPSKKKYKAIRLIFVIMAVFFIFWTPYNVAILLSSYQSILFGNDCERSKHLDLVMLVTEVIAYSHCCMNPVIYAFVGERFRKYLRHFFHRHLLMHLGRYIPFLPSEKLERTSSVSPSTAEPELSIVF

[3] = biological target: T3, human CCR7 (human, UniProt P32248 25-378); test: flow cytometry on transfected L1.2 cells
T3 construct: whole, on cells
T3 sequence (looked up): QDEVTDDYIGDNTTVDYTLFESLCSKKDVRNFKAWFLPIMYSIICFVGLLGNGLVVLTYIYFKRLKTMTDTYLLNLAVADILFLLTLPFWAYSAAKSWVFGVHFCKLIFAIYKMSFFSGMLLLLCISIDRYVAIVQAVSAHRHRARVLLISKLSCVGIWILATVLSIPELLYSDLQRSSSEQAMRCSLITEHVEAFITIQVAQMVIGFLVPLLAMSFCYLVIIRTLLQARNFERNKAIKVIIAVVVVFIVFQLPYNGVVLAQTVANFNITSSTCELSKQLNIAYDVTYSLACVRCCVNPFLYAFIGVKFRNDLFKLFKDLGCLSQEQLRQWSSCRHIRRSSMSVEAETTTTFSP

[4] = biological target: T4, human CCR6 (human, UniProt P51684 1-374); test: flow cytometry on transfected L1.2 cells
T4 construct: whole, on cells
T4 sequence (looked up): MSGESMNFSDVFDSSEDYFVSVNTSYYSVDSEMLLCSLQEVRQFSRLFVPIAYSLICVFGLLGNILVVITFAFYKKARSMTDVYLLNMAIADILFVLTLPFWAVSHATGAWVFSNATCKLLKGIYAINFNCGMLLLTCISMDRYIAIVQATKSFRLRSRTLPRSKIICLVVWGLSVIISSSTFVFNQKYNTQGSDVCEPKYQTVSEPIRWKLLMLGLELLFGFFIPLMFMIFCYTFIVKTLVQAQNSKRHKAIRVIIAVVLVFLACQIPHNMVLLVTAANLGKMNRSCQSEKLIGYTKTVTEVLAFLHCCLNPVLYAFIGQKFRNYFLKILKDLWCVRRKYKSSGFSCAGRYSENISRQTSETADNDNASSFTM

[5] = biological target: T5, human CCR10 (human, UniProt P46092 1-362); test: flow cytometry on transfected L1.2 cells
T5 construct: whole, on cells
T5 sequence (looked up): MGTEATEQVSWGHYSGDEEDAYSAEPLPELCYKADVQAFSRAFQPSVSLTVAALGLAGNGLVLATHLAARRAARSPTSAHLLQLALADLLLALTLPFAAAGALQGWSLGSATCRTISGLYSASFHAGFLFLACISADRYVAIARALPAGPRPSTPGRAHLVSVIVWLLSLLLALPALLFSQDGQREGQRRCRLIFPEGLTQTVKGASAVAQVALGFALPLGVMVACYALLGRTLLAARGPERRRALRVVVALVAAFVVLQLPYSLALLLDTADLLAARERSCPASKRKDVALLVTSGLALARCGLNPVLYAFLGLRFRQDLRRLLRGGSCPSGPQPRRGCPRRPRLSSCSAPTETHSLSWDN

[6] = biological target: T6, Cynomolgus CCR8 (cynomolgus monkey, UniProt O97665 1-356 (rhesus entry)); test: flow cytometry on HEK293T cells transfected with cyno CCR8
T6 construct: also called cyno CCR8; cynomolgus monkey CCR8
Text: FIG. 2. Reactivity of 2H8 antibody and other anti-hCCR8 antibodies towards Cyno CCR8. HEK293T cells were transfected with plasmid coding for cynomolgus monkey CCR8 and stained with various anti-hCCR8 antibodies (blue) or isotype control (red).

[7] = biological target: T7, hCCR8_172-173 YQ-AA (human, UniProt P51685 1-355); test: epitope mapping on transfected cells
T7 construct: also called Mut 172-173

[8] = biological target: T8, hCCR8_174-175 VA-AG (human, UniProt P51685 1-355); test: epitope mapping on transfected cells
T8 construct: also called Mut 174-175

[9] = biological target: T9, Mouse CCR8 (mouse, UniProt P56484 1-353); test: flow cytometry on transfected CHO-Flpn cells
T9 construct: Expressed on transfected CHO-Flpn or L1.2 cells; also called mCCR8
T9 sequence: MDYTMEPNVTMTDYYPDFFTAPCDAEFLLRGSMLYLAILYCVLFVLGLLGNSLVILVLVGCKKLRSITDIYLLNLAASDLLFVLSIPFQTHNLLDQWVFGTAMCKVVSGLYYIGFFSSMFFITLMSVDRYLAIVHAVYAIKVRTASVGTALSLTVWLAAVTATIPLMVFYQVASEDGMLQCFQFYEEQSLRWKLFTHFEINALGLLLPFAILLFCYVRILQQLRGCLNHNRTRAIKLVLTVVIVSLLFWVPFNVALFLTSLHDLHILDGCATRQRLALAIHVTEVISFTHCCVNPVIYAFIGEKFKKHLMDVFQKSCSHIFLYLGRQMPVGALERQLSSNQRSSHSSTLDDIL

T1 sequence (P51685 whole entry): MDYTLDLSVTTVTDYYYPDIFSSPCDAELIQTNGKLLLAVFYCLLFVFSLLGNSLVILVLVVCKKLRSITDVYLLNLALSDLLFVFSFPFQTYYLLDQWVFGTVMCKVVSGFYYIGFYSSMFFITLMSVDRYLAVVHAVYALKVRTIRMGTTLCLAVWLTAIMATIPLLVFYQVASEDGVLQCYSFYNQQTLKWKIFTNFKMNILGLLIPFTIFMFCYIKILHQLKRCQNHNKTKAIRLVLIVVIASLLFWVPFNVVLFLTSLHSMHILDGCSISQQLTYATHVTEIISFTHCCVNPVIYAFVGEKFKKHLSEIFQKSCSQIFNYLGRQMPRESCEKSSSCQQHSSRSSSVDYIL
T7 sequence (P51685 whole entry Y172A/Q173A): as the sequence (P51685 whole entry) above, with Y172A, Q173A counted along it
T8 sequence (P51685 whole entry V174A/A175G): as the sequence (P51685 whole entry) above, with V174A, A175G counted along it
T6 sequence (O97665 other isoform, or with tags, fused parts or gaps): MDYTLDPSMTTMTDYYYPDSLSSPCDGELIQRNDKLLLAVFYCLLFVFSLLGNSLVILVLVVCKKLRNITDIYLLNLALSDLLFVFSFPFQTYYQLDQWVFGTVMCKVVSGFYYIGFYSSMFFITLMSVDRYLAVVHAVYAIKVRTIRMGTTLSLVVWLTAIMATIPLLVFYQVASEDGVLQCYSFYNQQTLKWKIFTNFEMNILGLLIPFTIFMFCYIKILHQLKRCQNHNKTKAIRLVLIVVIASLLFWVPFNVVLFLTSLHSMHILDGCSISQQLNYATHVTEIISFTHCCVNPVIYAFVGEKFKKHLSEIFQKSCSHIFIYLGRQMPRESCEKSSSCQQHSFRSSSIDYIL

EC50 [1]: 2.1 nM
B1: Humanised 2H8 (antibody, V domains shown)
VH: QVQLVQSGAEVKKPGASVKVSCKASGYTFTDYNMHWVRQAPGQGLEWIGYVNPNNGGTSYNQKFKGKATLTVDKSISTAYMELSRLRSDDTAVYYCARWVLRRNFAYWGQGTLVTVSS
VL: DIQMTQSPSSLSASVGDRVTITCKASQDVNTAVAWYQQKPGKAPKLLIYWASTRHTGVPSRFSGSGSGTDFTLTISSLQPEDFATYYCQQHYRNPYTFGQGTKLEIK
notes: also called Humanized 2H8-B4; h2H8

EC50 [1]: 2.1 nM
B2: Chimeric 2H8 (antibody, human IgG1, kappa, V domains shown)
VH: EVQLQQSGPELVKPGASVKMSCKASGYTFTDYNMHWVKQSHGKSLEWIGYVNPNNGGTSYNQKFKGKATLTVNKSSSTAYMELRSLTSEDSAVYYCARWVLRRNFAYWGQGTLVTVSA
VL: DIVMTQSHKFMSTSVGDRVSITCKASQDVNTAVAWYQQKPGQSPKLLIYWASTRHTGVPDRFTGSGSGTDYTLTISSVQAEDLALYYCQQHYRNPYTFGGGTKLEIKR
notes: also called Chimeric 2H8-B4; chimeric 2H8 B4 (parental)

binding result [2]: no binding
binding result [3]: no binding
binding result [4]: no binding
binding result [5]: no binding
binding result [6]: binds
binding result [7]: binds
binding result [8]: binds
binding result [9]: binds
B3: 2H8 anti-m/hCCR8 antibody (mouse hybridoma clone, isotype IgG2b) (antibody, V domains shown)
VH: B2 VH
VL: DIVMTQSHKFMSTSVGDRVSITCKASQDVNTAVAWYQQKPGQSPKLLIYWASTRHTGVPDRFTGSGSGTDYTLTISSVQAEDLALYYCQQHYRNPYTFGGGTKLEIK
notes: Murine antibody from a mouse immunised with mouse CCR8 L1.2 cells; the mouse constant regions are not; also called 2H8-B4
